Here are results for two molecules from patent US8697416B2, “Recombinant polynucleotide, host cells containing the same and a process for producing a protein having aldolase activity” (Ajinomoto Co., Inc., priority 2002, dated 2014).

One may read the Km as the concentration of substrate that gives half-maximal velocity.

Like-named read-outs stand apart in the source and are kept apart here.

A short description of data set [1]: Enzymatic properties of PtALD: kinetics constants when using PHOG as substrate. Type of data set: biochemical. The protocol: Basic reaction conditions: 50 mM Hepes-KOH (pH 8.0), 2 mM PHOG, 5 mM MgCl2, 3 mM KPB (pH 8), 16 U/ml of lactate dehydrogenase, measure a optical absorbance at 340 nm measured at 30° C.
The aldolase activity increased by 2.7 times as compared with a non-addition lot following addition of 1 mM MgCl2, and increased 2 times as compared with a non-addition lot following addition of 5 mM KPB.

Data set [2] is described as follows: Optimum pH of PtALD aldolase activity. Conditions: at 33° C. Type of data set: biochemical. How it is done: More specifically, aldolase activity may be estimated according to the following steps of adding aldolase to a reaction solution composed of 100 mM buffer, 50 mM indole-3-pyruvic acid, 250 mM pyruvic acid, 1 mM MgCl2 and 1% (v/v) toluene; and shaking while reaction at 33° C. for 4 hours; and then quantifying the amount of IHOG formed by HPLC.

A short description of data set [3]: Temperature stability of PtALD (residual activity). In kind it is physicochemical. Conditions: 30 minutes incubation, pH 7.0 and pH 9.0. How it is done: Residual activity was measured under the basic measurement conditions after incubating PtALD at 25 to 70° C. for 30 minutes in 100 mM potassium phosphate buffer (pH 7.0) and 100 mM glycine-NaOH buffer (pH 9.0).

Data set [4] is described as follows: Aldol condensation activity of PtALD using acetaldehyde and α-ketobutyrate (ESI-MS). Conditions: 50 mM acetoaldehyde, 250 mM α-ketobutyrate, 0.1 mg/ml PtALD, pH 9, 33° C., 16 hours. Type of data set: biochemical. How it is done:
The aldol condensation activity of the PtALD prepared in Example 4 was measured using acetaldehyde and α-ketobutyrate. A reaction solution composed of 100 mM glycine-NaOH (pH 9), 50 mM acetoaldehyde, 250 mM α-ketobutyrate, 1 mM MgCl2 and 0.1 mg/ml PtALD was prepared, and it was incubated at 33° C. for 16 hours. The resulting reaction solution was subjected to ultrafiltration with an ultrafiltration membrane, Microcon 10 (Amicon) for a fraction molecular weight of 10000. 10 μl of the filtrate was diluted in 200 μl of 50% acetonitrile/0.1% aqueous ammonia solution followed by ESI-MS analysis.

The nature of data set [5]: pH stability of PtALD (residual activity). In kind it is physicochemical. Conditions: 37° C., 30 minutes, 100 mM buffers. How it is done:
pH stability was measured over a range of pH 3 to pH 11. The buffers used for measurement were as follows: sodium acetate buffer (pH 3, 4, 5, 6), potassium phosphate buffer (pH 6, 6.5, 7, 7.5), Tris-HCl buffer (pH 7, 7.5, 8, 8.5), glycine-NaOH buffer (pH 9, 9.5, 10), CAPS-NaOH buffer (pH 10, 10.5, 11). The residual activity after incubating PtALD at 37° C. for 30 minutes in each of the buffer solutions at a concentration of 100 mM was measured under the basic reaction conditions.

A short description of data set [6]: Aldol condensation activity of pyruvic acid for various substrates using PtALD (ESI-MS). In kind it is biochemical. Conditions: 50 mM substrate, 250 mM sodium pyruvate, 0.1 mg/ml PtALD, pH 9, 33° C., 2 hours; substrates of Tables 11 and 12. The protocol:
The aldol condensation activity of pyruvic acid was measured for the various substrates shown in Table 11 using the PtALD produced in Example 4. A reaction solution was prepared composed of 100 mM glycine-NaOH (pH 9), 50 mM substrate, 250 mM sodium pyruvate, 1 mM MgCl2 and 0.1 mg/ml PtALD, and incubated at 33° C. for 2 hours. The resulting reaction solution was subjected to ultrafiltration with an ultrafiltration membrane, Microcon 10 (Amicon) for a fraction molecular weight of 10000. 2 μl of the filtrate was diluted in 200 μl of 50% acetonitrile/0.1% aqueous ammonia solution followed by ESI-MS analysis.

Data set [7] in a line: Synthesis of IHOG from indole-3-pyruvic acid and pyruvic acid using purified PtALD and PcALD. Conditions: PtALD 1.8 U/ml, PcALD 0.8 U/ml, pH 8.5, 33° C., 4 hours. In kind it is biochemical. The protocol:
4-(Indol-3-ylmethyl)-4-hydroxy-2-oxoglutarate (IHOG) was synthesized from indole-3-pyruvic acid and pyruvic acid using the PtALD and PcALD produced in Examples 4 and 5 as enzyme sources. The amount of IHOG was determined by HPLC analysis using the “Inertsil ODS-2” (GL Sciences Inc., 5 μm, 4.6×250 mm). The analysis conditions are as indicated below.
Mobile phase: 40% (v/v) acetonitrile/5 mM tetrabutyl
ammonium dihydrogen phosphate solution
Column temperature: 40° C.
PtALD and PcALD were added at 1.8 U/ml and 0.8 U/ml, respectively, to a reaction solution comprised of 100 mM Hepes-KOH (pH 8.5), 50 mM indole-3-pyruvic acid, 250 mM pyruvic acid and 1 mM to 5 mM MgCl2, and allowed to react at 33° C. for 4 hours. The enzyme reaction solution was suitably diluted and the amount of IHOG formed was quantified. As a result, IHOG was able to be formed from the aldolases.

B1: PtALD: aldolase derived from Pseudomonas taetrolens ATCC4683, amino acid sequence SEQ ID No: 2 or 3; recombinant, purified in Example 4 (protein, listed as Pseudomonas taetrolens)
chain: MEVAMSLPGSRIYPSPPQAPRSLLDAFQNVVTPHISDNLGRHIGARGLTRYNHTGKLVGTALTVKTRPGDNLYIYKALTLIEPGHVLVIDAQGDATNAVIGELIKLYAQQRGCVGFVVDGAIRDVASFEDTPCYARSVVHCGPYKSGPGEINVPVSIGGMIINPGDIIVGDEDGLVAFSPDHAEQVLVKAREHDAHEQQVKAEIATGAIDQSWLDKVLEKAGLAN
For B1, the “Increase of aldolase activity as compared with a non-addition lot” value in data set [1] (addition of 1 mM MgCl2) came to 2.7 times; in data set [1] (addition of 5 mM KPB) it was 2 times. The “Ka (for KPi)” value in data set [1] (pH 8.0, 30° C.) came to 0.95 mM. The “Vmax (for PHOG)” value in data set [1] (pH 8.0, 30° C.) amounted to 91.7 µmol/min/mg. In addition, the Km in data set [1] (pH 8.0, 30° C., read-out: Km (for MgCl2)) worked out at 19 µM; in data set [1] (pH 8.0, 30° C., read-out: Km (for PHOG)), 100 µM. In data set [2], the “optimum pH” value is “about 9”. The molecule also gave a temperature stability in data set [3] of at most 70 °C. Moreover, the “Formation of aldol condensate from acetaldehyde and α-ketobutyrate” value in data set [4] was “formation of the desired aldol condensate”. Also, the “pH stability (pH)” value in data set [5] is at least 6. In addition, the “Formation of pyruvic acid aldol condensates for various substrates” value in data set [6] is “the desired pyruvic acid aldol condensates were formed”. For the same molecule, the IHOG formed was found to be 11.4 mM in data set [7] (MgCl2 1 mM) and 10.5 mM in data set [7] (MgCl2 5 mM).

B2: PcALD: aldolase derived from Pseudomonas coronafaciens strain AJ2791, amino acid sequence SEQ ID No: 16; recombinant, purified in Example 5 (protein, listed as Pseudomonas coronafaciens)
chain: MKCHSVIWFSAWPHPIISREKSHMTIGFRVLSAARKVSPEWVARYRDVPVANVSDSMNRMTAGGSRLRPMHRAGVLAGPALTVKARPGDNLMLHYAIDIAQPGDVIVVDAGGDLTNALIGEMMVAYAVKRGVAGIVINGAIRDAASIGAGDFPMFAAGVSHRGPYKDGPGEINVPIAIDGMVIEAGDLVIGDDDGLLCVPYDQVAEVYDRAAAKHHAEQKQLEQIAKGENDRSWVLESLKKKGCQLPE
As to B2, the figures for the IHOG formed in data set [7] (MgCl2 1 mM) and in data set [7] (MgCl2 5 mM) were 4.9 mM and 5.4 mM, respectively.
